Test results taken from patent publication US7838288B2, “Modulators of odorant receptors” (Duke University, priority 2004, dated 2010).

T1: mouse odorant receptor OREG (Mus musculus, UniProt Q920P2)
T1 construct: expressed in transfected cells; host or cells: 293T cells (with or without co-transfected REEP1/RTP1/RTP2) and Hana3A cells (293T stably expressing mouse REEP1, RTP1, RTP2, Galpha-olf)
T1 sequence (Q920P2 1-313): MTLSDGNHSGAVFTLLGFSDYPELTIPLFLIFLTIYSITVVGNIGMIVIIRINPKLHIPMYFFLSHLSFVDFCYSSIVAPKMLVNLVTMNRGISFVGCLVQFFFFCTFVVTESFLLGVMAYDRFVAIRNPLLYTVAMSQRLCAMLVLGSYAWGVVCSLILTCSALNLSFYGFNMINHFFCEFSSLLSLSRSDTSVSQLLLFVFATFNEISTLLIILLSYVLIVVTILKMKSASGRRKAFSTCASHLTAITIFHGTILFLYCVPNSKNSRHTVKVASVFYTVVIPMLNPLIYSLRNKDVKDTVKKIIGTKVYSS

B1: RTP4: other member of the RTP family; murine SEQ ID NO: 36 (protein, listed as Mus musculus)
chain: MLFPDDFSTWEQTFQELMQEEKPGAKWSLHLDKNIVPDGAALGWRQHQQTVGRFQCSRCCRSWTSAQVMILCHMYPDTLKSQGQARMRIFGQKCQKCFGCQFETPKFSTEIIKRILNNLVNYILQRYYGHRKIALTSNASLGEKVTLDGPHDTRNCEACSLNSHGRCALAHKVKPPRSPSPLPNSSSPSKSCPPPPQTRNTDFGNKTLQDFGNRTFQGCREPPQREIEPPLFLFLSIAAFALFSLFTR
B2: RTP2: a close relative of RTP1; murine SEQ ID NO: 34, human SEQ ID NO: 38 (protein, listed as Mus musculus)
chain: MSTSLTTCEWKKVFYEKMEVAKPADSWELIIDPTLKPNELGPGWKQYLEQHASGRFHCSWCWHTWQSANVVILFHMHLDRAQRVGSVRMRVFKQLCYQCGTSRLDESSMLEENIEGLVDNLITSLREQCYDEDGGQYRIHVASRPDSGLHRSEFCEACQEGIVHWKPSEKLLEEDAAYTDASKKKGQAGFISSFFSFRWCLFWGTLCLVIVYLQFFRGRSGFL
B3: REEP2: other member of the REEP family; murine SEQ ID NO: 22 (protein, listed as Mus musculus)
chain: MVSWIISRLVVLIFGTLYPAYSSYKAVKTKNVKEYVKWMMYWIVFAFFTTAETLTDIILSWFPFYFELKIAFVIWLLSPYTKGSSVLYRKFVHPTLSNKEKEIDEYITQARDKSYETMMRVGKRGLNLAANAAVTAAAKGQGVLSEKLRSFSMQDLTLIRDEDALPLQGPDGRLQPGPVGLLDTIEDLGDEPALSLRSSTSQPDPRTETSEDDLGDKAPKRTKPIKKVPRAEPPASKTLKTRPKKKSSGGGDSA

Experiments:
olfr62 = assay: CRE-luciferase reporter gene assay, olfr62; type: cell-based, mouse; conditions: Hana3A cells
Protocol: Four ORs (S6/79, S18, S46 and S50) previously assayed using other techniques (see, e.g., Malnic, B., et al. (1999) Cell 96, 713-723; herein incorporated by reference in its entirety) were tested against an assay panel of aliphatic alcohols, aldehydes and acids and some other odorants. Additionally, five “orphan” class I ORs (MOR23-1, MOR31-4, MOR31-6, MOR32-5 and MOR32-11) whose cognate ligands were unknown were tested. At a suprathreshold concentration of 100 uM, all these ORs were odorant selective, responding to only a small subset of the odorants tested (see FIG. 11A). This specificity was retained at lower, more physiologically relevant concentrations. Many of these ORs responded to odorants present in micromolar concentrations. The cell-surface expression of these ORs by living-cell immunofluorescence were evaluated. Some ORs (S18, MOR31-4, MOR31-6 and MOR32-5) were strongly expressed while other ORs (S6, S50, MOR23-1, MOR32-11) were weakly expressed (see FIG. 12). The present invention is not limited to a particular mechanism. Indeed, an understanding of the mechanism is not necessary to practice the present invention. […] Finally, two additional orphan class II ORs, MOR203-1 and olfr62, were tested against a panel of 139 odorants. […] Olfr62 responded to coumarine and piperonal (see FIG. 11C). […] When parental 293T cells for these ORs were used in this luciferase assay, little or no response to the odorants was observed. The present invention is not limited to a particular mechanism. Indeed, an understanding of the mechanism is not necessary to practice the present invention.
Dual-Glo system (Promega) for luciferase assay was used. CRE-Luciferase (Stratagene) was used to measure the receptor activities. Renilla luciferase driven by constitutively active SV40 promoter (pRL-SV40: Promega) was used as an internal control. Cells were plated on poly-D-lysine coated 96 well plates (BIOCOAT, Beckton Dickinson). After 8 hours (for experiments shown in FIGS. 8B and 8C) or 12 hours (for experiments shown in FIG. 8D and FIG. 11) after transfection, the medium was replaced with CD293 chemically defined medium (Invitrogen) and the plates were incubated for one hour at 37 degrees C. The medium was replaced with 50 ul of odorant solutions dissolved in CD293 and incubated for 10 hours (for experiments shown in FIGS. 8B and 8C) or 4 hours (for experiments shown in FIG. 8D and FIG. 11) at 37 degrees C. The manufacture's protocol for measuring luciferase and Renilla luciferase activities was followed. Luminescence was measured using Wallac Victor 1420 (Perkin-Elmer). Normalized luciferase activity was calculated as [Luc (N)-Luc (0)]/RL (N), where Luc (N)=Luminescent count of a certain well, Luc (0)=Luminescent count without odorant for each OR, and RL (N)=Luminescent count of Renilla Luciferase of each well. For cAMP assays, cells were plated onto 24-well plate. […]. Prism software (Graphpad) was used for data analysis. […]

[1] = target: T1, mouse odorant receptor OREG; assay: CRE-luciferase reporter gene assay, OREG; type: cell-based; conditions: 293T cells; compared to OR alone or control pCI
Description: Poor odorant evoked signaling activity in heterologous cell culture systems expressing ORs has been attributed to the poor cell surface expression of ORs. The identification of REEP and/or RTP allowed a direct assessment of this issue. A luciferase reporter gene assay was employed in which a cAMP responsive element (CRE) mediated luciferase gene expression (see FIG. 8A). Because OR activation leads to an increase in cAMP, activation of the mouse odorant receptor OREG by its ligand eugenol was measured in the presence and absence of REEP and/or RTP (see, e.g., Kajiya, K., et al. (2001) J Neurosci 21, 6018-6025; Touhara, K., et al., (1999) Proc Natl Acad Sci USA 96, 4040-4045; each herein incorporated by reference in their entireties). As reported previously, eugenol increased levels of OREG dependent luciferase activity (see, e.g., Katada, S., et al. (2003) Biochem Biophys Res Commun 305, 964-969; herein incorporated by reference in its entirety).
To facilitate analysis of odorant-OR interactions, 293T cell lines were established which stably express REEP1, RTP1, RTP2 and Gαolf, the G protein alpha subunit that couples to OR (see, e.g., Belluscio, L., et al. (1998) Neuron 20, 69-81; Jones, D. T., and Reed, R. R. (1989). Science 244, 790-795; each herein incorporated by reference in their entireties). To establish such cells, linearized expression vectors containing mouse REEP1, RTP1, RTP2 and Gαolf ORFs were transfected into 293T cells with PGK-Pac (puromycin resistant gene) (see, e.g., Watanabe, S., et al. (1995) Biochem Biophys Res Commun 213, 130-137; herein incorporated by reference in its entirety). […] Enhanced cell-surface expression was observed when OREG or other ORs were transfected in Hana3A cells and immunostained (see FIG. 10). […] Expression of Gαolf alone in 293T cells had little or no effect on OR activation using this assay.
Dual-Glo system (Promega) for luciferase assay was used. CRE-Luciferase (Stratagene) was used to measure the receptor activities. Renilla luciferase driven by constitutively active SV40 promoter (pRL-SV40: Promega) was used as an internal control. Cells were plated on poly-D-lysine coated 96 well plates (BIOCOAT, Beckton Dickinson). After 8 hours (for experiments shown in FIGS. 8B and 8C) or 12 hours (for experiments shown in FIG. 8D and FIG. 11) after transfection, the medium was replaced with CD293 chemically defined medium (Invitrogen) and the plates were incubated for one hour at 37 degrees C. The medium was replaced with 50 ul of odorant solutions dissolved in CD293 and incubated for 10 hours (for experiments shown in FIGS. 8B and 8C) or 4 hours (for experiments shown in FIG. 8D and FIG. 11) at 37 degrees C. The manufacture's protocol for measuring luciferase and Renilla luciferase activities was followed. Luminescence was measured using Wallac Victor 1420 (Perkin-Elmer). Normalized luciferase activity was calculated as [Luc (N)-Luc (0)]/RL (N), where Luc (N)=Luminescent count of a certain well, Luc (0)=Luminescent count without odorant for each OR, and RL (N)=Luminescent count of Renilla Luciferase of each well. For cAMP assays, cells were plated onto 24-well plate. […]. Prism software (Graphpad) was used for data analysis.

MOR203-1 = assay: Living-cell staining of cell-surface MOR203-1; type: cell-based, mouse; conditions: accessory protein co-transfected in 293T cells
Description: After hypothesizing that mammalian ORs require accessory protein(s) for functional cell surface expression, a search was instituted for detecting such molecule(s). Long-SAGE (serial analysis of gene expression) libraries (see, e.g., Saha, S., et al., (2002) Nat Biotechnol 20, 508-512; herein incorporated by reference in its entirety) were constructed from single olfactory neurons as well as neurons from the vomeronasal organ and genes were collected that are expressed by these neurons. To identify candidate genes expressed by the olfactory neurons Digital Differential Display (see, e.g., http://www, followed by, .ncbi.nlm.nih.gov/UniGene/info_ddd.shtml) was also used. Candidate genes were investigated for ORFs that encode membrane associated proteins. Genes were selected with similarities to known chaperones and cloned the cDNAs from olfactory epithelium cDNAs. The mRNA expression of each gene was verified by in situ hybridization. After isolating and subcloning into mammalian expression vectors, each cDNA together with a mouse OR (MOR203-1) tagged with a 20 N-terminal amino acids of rhodopsin (Rho-tag), was transfected into 293T cells. We measured whether these clones had any effect on the cell-surface expression of ORs by staining living cells using antibodies against the Rho-tag (see, e.g., Laird, D. W., and Molday, R. S. (1988) Invest Opthalmol Vis Sci 29, 419-428; herein incorporated by reference in its entirety). When MOR203-1 was transfected alone, antibody staining detected only faint cell-surface expression in less than 1% of the cells. A schematic diagram outlining the screening procedure utilized with the present invention is provided at FIG. 1.
293T cells were maintained in minimal essential medium containing 10% fetal bovine serum (M10). Lipofectamine 2000 (Invitrogen) was used for transfection. In live-cell staining, 16 hours after transfection, cells were incubated in M10 containing anti rhodopsin antibody, 4D2 (see, e.g., Laird, D. W., and Molday, R. S. (1988) Invest Opthalmol V is Sci 29, 419-428; herein incorporated by reference in its entirety) and 15 mM NaN3 at 4 degrees C. for 1 hour. After washing, cells were incubated with Cy3-conjugated anti mouse IgG (Jackson Immunologicals), washed and mounted. For FACS analysis, 4D2 and PE-conjugated anti mouse IgG (Jackson Immunologicals) were used to monitor the Rho tagged receptor expression. Anti HA rabbit antibodies (Sigma) and Alexa 488 conjugated anti rabbit IgG (Molecular Probes) was used to stain the HA-β2 adrenergic receptor. To establish the Hana3a cells, 1 ug/ml of puromycin was used for selection. 96 colonies were picked and assayed using luciferase assay using OREG.

Molecule | response of olfr62 to odorant (luciferase) (olfr62) | OREG activity by luciferase, accessory protein co-expressed [1] | cell surface expression of MOR203-1 (MOR203-1)
O=c1ccc2ccccc2o1 [coumarin, Coumarin] | responded |  | 
O=Cc1ccc2c(c1)OCO2 [piperonal, Piperonal] | responded |  | 
O=C1Cc2ccccc2O1 [2-coumaranone, 2-Coumaranone] | preferred ligand |  | 
B1 |  | did not produce a significant increase | not observed
B2 |  | enhanced luciferase activities compared to OR alone | also enhanced cell surface expression
B3 |  |  | not observed
